This data set addresses T1, OsGSTU5 (Oryza sativa, UniProt Q0J294 6-233).
T1 sequence: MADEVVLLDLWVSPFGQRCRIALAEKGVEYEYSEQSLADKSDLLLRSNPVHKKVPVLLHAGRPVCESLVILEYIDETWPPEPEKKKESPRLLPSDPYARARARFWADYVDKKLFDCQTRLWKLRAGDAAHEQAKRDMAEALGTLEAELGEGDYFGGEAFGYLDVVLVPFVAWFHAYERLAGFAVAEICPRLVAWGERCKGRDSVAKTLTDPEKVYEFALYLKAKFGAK
Kind of data set: EMSA.

B1: 39-nt experimental oligo (ssDNA) (ssDNA)
DNA: GCGGTGGAAGTAGCAACAGCGGTTCTAGCGGCAGCGGCG
As for B1, the binding result is reported as “no binding”.

For the origin of these results see article doi:10.1101/2021.03.25.436940.
